We go through 2 molecules from patent publication US20170258835A1.

The test deals with PD1-Z CLEAR. In words: flow cytometry, T cells 18 h after co-electroporation of PD1-Z RNA and bi-specific antibody RNA, stained with anti-mouse IgG Fab PE and anti-PD1 APC; same quadrant in the controls: EP16 PD1-Z alone 2.42, EP20 No RNA 0.086.
Chain of PD1-Z CLEAR (chain, as listed by the source limits assumed): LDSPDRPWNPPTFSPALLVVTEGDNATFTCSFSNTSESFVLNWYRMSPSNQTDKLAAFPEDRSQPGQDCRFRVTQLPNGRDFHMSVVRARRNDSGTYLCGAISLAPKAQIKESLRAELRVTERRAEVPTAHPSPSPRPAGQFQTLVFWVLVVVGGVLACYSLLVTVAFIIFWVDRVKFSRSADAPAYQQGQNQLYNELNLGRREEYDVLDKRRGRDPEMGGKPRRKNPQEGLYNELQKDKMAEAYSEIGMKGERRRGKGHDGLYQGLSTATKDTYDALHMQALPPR

B1: 4A11-4D5-4 (bispecific antibody, part only; not given: anti-ErbB2 scFv 4D5-4 and linker, not shown: another chain or arm of the molecule; small tags and cut ends)
scFv: DIQMTQSPSSLSASVGDRVSITCRASQGISSWLAWYQQKPEKAPKSLIYAASNLRSGVPSRFSGSGSGTDFTLTISSLQPEDFATYYCQQYYSYPRTFGQGTKVEIKGGGGSGGGGSGGGGSQLQLQESGPGLVKPSETLSLTCTVSGGSLSRSSFFWGWIRQPPGKGLEWIGSIYYSGSTYYNPSLKSRVTISVDTSKNQFSLKLSSVTAADTAVYYCVRDYDILTGDEDYWGQGTLVTVSS
As for B1, the percent of cells PD1+ mIgG Fab+ (upper right quadrant) is 57.1.

B2: 4A11-4D5-3 (bispecific antibody, part only; not given: anti-ErbB2 scFv 4D5-3 and linker, not shown: another chain or arm of the molecule; small tags and cut ends)
scFv: B1 scFv
B2 came in with a percent of cells PD1+ mIgG Fab+ (upper right quadrant) of 35.6.
